These results are taken from patent publication US20260265321A1, “PEPTIDE AND POLYPEPTIDE INHIBITING THE NF-KB SIGNALING PATHWAY” (Centre National de la Recherche Scientifique, priority 2023, published 2026).

Numbering of substitutions follows the chain as printed. A value given as a limit tells only on which side of the number the result lay.

Assay [1] has as its target T1, G1-IKKα, full-length wt IKKα fused to the Gluc1 fragment (human, UniProt O15111 1-745).
T1 construct: Expressed in HEK293T cells for GPCA; full-length; also called Gluc1-IKKα; not shown: Gluc1 fragment of Gaussia princeps luciferase and flexible 20 amino acid linker, N-terminal
T1 sequence (looked up): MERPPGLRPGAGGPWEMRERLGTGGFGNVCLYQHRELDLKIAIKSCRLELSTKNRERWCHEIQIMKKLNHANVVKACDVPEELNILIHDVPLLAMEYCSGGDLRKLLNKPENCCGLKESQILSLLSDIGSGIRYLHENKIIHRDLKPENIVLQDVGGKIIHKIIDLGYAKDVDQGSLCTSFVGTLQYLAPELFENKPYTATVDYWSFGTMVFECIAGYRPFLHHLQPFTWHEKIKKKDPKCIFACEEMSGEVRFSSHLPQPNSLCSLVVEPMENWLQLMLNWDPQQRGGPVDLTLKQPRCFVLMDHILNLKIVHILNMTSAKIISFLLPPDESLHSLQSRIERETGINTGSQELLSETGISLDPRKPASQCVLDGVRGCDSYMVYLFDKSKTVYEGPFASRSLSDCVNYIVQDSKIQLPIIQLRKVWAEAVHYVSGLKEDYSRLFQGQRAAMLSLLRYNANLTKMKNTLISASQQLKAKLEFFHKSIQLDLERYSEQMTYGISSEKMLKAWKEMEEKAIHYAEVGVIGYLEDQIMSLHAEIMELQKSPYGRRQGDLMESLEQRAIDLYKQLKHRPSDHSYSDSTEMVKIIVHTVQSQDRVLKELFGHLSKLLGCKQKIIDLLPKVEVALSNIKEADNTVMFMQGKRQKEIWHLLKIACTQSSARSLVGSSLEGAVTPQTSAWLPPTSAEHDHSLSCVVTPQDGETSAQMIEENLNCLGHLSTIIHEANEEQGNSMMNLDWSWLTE
Nature of the assay: GPCA (Gaussia princeps protein complementation assay) in HEK293T cells, NLR, mean ± SD of triplicates. How it is done:
(§1) HEK293T cells were transfected using the reverse transfection method. Transfection mixes containing 100 ng of pSPICA-N2 and 100 ng of pSPICA-N1 plasmids expressing test proteins plus JetPEI® (Polyplus transfection) were dispensed in white 96-well plates. HEK293T cells were then seeded on the DNA mixes at a concentration of 4.2×10^4 cells per well. 48 hours after transfection, cells were washed with 50 μl of PBS and lysed with 40 μl of Renilla lysis buffer (Promega, E2820) for 30 minutes with agitation. Gaussia princeps luciferase enzymatic activity was measured using a Berthold Centro LB960 luminometer by injecting 50 μl per well of luciferase substrate reagent (Promega, E2820) and counting luminescence for 10 seconds. Results are expressed as a fold change normalized over the sum of controls, specified herein as normalized luminescence ratio (NLR) 29. For a given protein pair A/B, NLR=(Gluc1-A+Gluc2-B)/[(Gluc1-A+Gluc2)+(Gluc1+Gluc2-B)]. All interactions were measured in three independent experiments, with each experiment being carried out in triplicate. The expression levels of Gluc1- and Gluc2-fused proteins were checked by Western blotting. 24 hours post-transfection, HEK293T cells were collected, lysed by incubation on ice and centrifuged. Aliquots of cleared supernatants were loaded onto an 10% SDS-PAGE gel.

The target of assay [2] is T2, G1-IKKβ, full-length wt IKKβ fused to the Gluc1 fragment (human, UniProt O14920 1-756).
T2 construct: Expressed in HEK293T cells for GPCA; full-length; also called Gluc1-IKKβ; not shown: Gluc1 fragment of Gaussia princeps luciferase and flexible 20 amino acid linker, N-terminal
T2 sequence (looked up): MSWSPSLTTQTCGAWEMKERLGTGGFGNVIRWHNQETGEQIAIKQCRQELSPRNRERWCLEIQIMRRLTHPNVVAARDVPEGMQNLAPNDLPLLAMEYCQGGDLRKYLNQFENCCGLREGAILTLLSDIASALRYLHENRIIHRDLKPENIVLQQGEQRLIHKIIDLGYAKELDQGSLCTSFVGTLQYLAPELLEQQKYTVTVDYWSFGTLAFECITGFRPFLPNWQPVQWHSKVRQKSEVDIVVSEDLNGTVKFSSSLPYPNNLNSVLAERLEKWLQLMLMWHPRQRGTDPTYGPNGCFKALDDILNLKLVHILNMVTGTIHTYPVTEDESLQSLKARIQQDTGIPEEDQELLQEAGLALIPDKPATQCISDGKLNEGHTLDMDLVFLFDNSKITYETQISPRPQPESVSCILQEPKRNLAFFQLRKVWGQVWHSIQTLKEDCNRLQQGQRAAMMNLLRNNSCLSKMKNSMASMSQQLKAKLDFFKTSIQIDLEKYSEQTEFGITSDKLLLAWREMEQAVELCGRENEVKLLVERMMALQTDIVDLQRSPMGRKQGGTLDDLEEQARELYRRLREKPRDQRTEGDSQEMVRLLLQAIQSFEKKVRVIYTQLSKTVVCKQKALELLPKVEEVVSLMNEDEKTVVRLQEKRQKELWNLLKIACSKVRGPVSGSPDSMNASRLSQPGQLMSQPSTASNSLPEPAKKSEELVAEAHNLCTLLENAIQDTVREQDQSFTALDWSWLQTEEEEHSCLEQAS
The assay is described as above. Here is the method:
as §1

The target in assay [3] is T3, G1-IKKβ L654D/W655D (GPCA construct) (human, UniProt O14920 1-756).
T3 construct: not shown: Gluc1 fragment of Gaussia princeps luciferase and flexible 20 amino acid linker, N-terminal
T3 sequence (looked up): T2 sequence (looked up) with L654D, W655D
Nature of the assay: GPCA in HEK293T cells. How it is done: as §1

Assay [4] has as its target T4, IKKα(10-667) S176E/S180E homodimer, 6×His tag removed (human, UniProt O15111 10-667).
T4 construct: also called purified IKKα
T4 sequence (looked up): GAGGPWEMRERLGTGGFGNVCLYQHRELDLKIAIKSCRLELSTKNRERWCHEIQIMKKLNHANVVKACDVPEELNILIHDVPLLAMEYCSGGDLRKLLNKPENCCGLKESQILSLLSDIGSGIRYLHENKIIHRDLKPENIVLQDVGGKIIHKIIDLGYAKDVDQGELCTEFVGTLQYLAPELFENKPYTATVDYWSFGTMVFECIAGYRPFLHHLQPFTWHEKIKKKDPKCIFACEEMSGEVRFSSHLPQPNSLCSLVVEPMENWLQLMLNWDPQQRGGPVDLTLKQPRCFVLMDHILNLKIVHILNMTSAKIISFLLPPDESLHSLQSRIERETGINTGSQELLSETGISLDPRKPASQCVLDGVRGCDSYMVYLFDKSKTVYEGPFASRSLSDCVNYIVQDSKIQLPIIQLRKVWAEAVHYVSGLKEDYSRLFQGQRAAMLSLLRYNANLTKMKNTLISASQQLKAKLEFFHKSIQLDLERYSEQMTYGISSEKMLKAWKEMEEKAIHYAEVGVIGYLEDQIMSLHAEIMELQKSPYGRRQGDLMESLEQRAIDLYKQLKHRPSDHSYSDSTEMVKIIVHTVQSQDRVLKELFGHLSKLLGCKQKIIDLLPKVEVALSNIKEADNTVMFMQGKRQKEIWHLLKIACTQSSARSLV
As to the kind of experiment: ITC, given as a lower bound.

The target of assay [5] is T4, IKKα(10-667) S176E/S180E homodimer, …. As to the kind of experiment: ITC, 25 °C, 1:1 model; values called estimates. Here is the method:
(§2) All experiments were performed in ITC buffer (20 mM HEPES pH 8.0, 150 mM NaCl, 1 mM TCEP) unless otherwise stated. […] Just before the ITC experiments, IKKα or IKKβ samples were concentrated, incubated at room temperature for 30 minutes and centrifuged at 11000 g to remove eventual precipitate. The final concentrations of IKKα and IKKβ in the sample cell varied between 22 and 50 μM depending on the measurement. […] The concentration of peptides in the syringe varied between 220 and 975 μM depending on the measurement.
(§3) All ITC experiments were performed at 25° C. The data were fitted to a 1:1 binding model. […] All data were processed using NITPIC software and global fitting of two datasets was carried out using SEDPHAD.

Assay [6] has the same target. Nature of the assay: ITC, 25 °C, 1:1 model; values called estimates; table value; footnote calls it an estimate. Here is the method: as §2, §3

B1: G2-IκBα(73-317) (other, UniProt P25963 73-317, looked up)
chain: DGDSFLHLAIIHEEKALTMEVIRQVKGDLAFLNFQNNLQQTPLHLAVITNQPEIAEALLGAGCDPELRDFRGNTPLHLACEQGCLASVGVLTQSCTTPHLHSILKATNYNGHTCLHLASIHGYLGIVELLVSLGADVNAQEPCNGRTALHLAVDLQNPDLVSLLLKCGADVNRVTYQGYSPYQLTWGRPSTRIQQQLGQLTLENLQMLPESEDEESYDTESEFTEFTEDELPYDDCVFGGQRLTL
notes: range 73-317; Expressed in HEK293T cells for GPCA; also called N-terminal truncated IκBα (73-317) construct; not shown: Gluc2 fragment of Gaussia princeps luciferase and flexible 20 amino acid linker, N-terminal
On to B1, for which the values for the binding result in assay [1], in assay [2] and in assay [3] were “binds”, “binds” and “no binding”, respectively.

B2: synthetic IRF7 pep (peptide)
peptide: LSSANSLYDDIECFLMELEQPA
With B2, in assay [4], the Kd was greater than 90 µM. In assay [5], the TΔS is -1.2 kcal/mol, the ΔG was -5.5 kcal/mol and the ΔH is -6.7 kcal/mol. For the same molecule, the Kd in assay [6] is roughly 90 µM.
